This note sets out measurements from patent US20180282719A1 (published 2018).

The target of assay [1] is T1, recombinant soluble human IL-6 receptor (SR344) (human, UniProt P08887 20-344, biotinylated (sites not given) where immobilized via streptavidin or used in phage ELISA).
T1 construct: also called soluble IL-6 receptor; membrane-type IL-6 receptor (when biotinylated and immobilized on the chip)
T1 sequence (looked up): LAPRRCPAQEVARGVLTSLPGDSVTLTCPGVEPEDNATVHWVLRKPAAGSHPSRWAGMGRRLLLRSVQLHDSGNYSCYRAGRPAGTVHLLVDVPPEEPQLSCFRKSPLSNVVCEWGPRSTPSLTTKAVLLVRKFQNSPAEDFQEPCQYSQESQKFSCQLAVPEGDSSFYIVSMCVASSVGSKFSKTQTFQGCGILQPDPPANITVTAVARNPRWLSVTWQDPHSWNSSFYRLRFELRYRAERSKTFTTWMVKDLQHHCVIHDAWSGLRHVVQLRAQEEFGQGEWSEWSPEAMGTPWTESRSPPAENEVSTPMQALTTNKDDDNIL
Briefly: SPR Biacore T100, antibody on protein A/G chip, SR344 analyte, 37 C. The method, then: Kinetic analyses of antigen-antibody reactions at pH 5.8 and pH 7.4 were carried out using a Biacore™ T100 surface plasmon resonance system (GE Healthcare) on the four antibodies: humanized PM1 antibody (WT) and H3pI/L73, CLH5/L73, and H170/L82 produced in Examples 2 and 4 (buffer: 10 mM MES (pH 7.4 or pH 5.8), 150 mM NaCl, and 0.05% TWEEN® 20 (polyoxyethelene sorbitan monolaurate)). Various antibodies were bound onto a sensor chip immobilized with recomb-protein A/G (Pierce) by amine coupling. SR344 adjusted to concentrations of 9.8 to 400 nM was injected to the chip as an analyte. […] All the measurements were carried out at 37° C. Association rate constants kₐ (1/Ms) and dissociation rate constants kd (1/s) were calculated using Biacore T100™ Evaluation Software (GE Healthcare), and dissociation constants KD (M) were calculated on the basis of those values (Table 5). Moreover, the ratio of the affinities at pH 5.8 and pH 7.4 were calculated for each clone to evaluate pH-dependent binding. All the measurements were carried out at 37° C.
(In general: SPR reads the build-up and loss of mass on a sensor chip optically.)

In assay [2] the target is T1, recombinant soluble human IL-6 receptor …. The assay can be described thus: SPR Biacore T100, integrated RU of SR344 bound over ten cycles, 37 C. The method, then:
The produced pH-dependent binding clones described above were analyzed using a Biacore T100™ surface plasmon resonance system (GE Healthcare) for their ability to bind to the antigen SR344 multiple times at pH 5.8 and pH 7.4. More specifically, the analysis was carried out as follows. All the measurements were carried out at 37° C. First, the sample antibodies described above were bound onto a recomb-protein A/G (Pierce)-immobilized sensor chip by amine-coupling, where the mobile phase buffer was 10 mM MES (pH 5.8), 150 mM NaCl, and 0.05% TWEEN® 20 (polyoxyethelene sorbitan monolaurate) (step 1). SR344 adjusted to a concentration of about 40 nM was injected as an analyte for 3 minutes at pH 7.4 and allowed to bind (the buffer for injected SR344 was 10 mM MES (pH 7.4), 150 mM NaCl, and 0.05% TWEEN® 20 (polyoxyethelene sorbitan monolaurate)) (step 2). Subsequently, the injection of SR344 was discontinued and a mobile phase of pH 5.8 was allowed to flow for about 70 seconds to expose the antibody/SR344 complex under acidic conditions (step 3). Ten sets of this binding (step 2)/acidity exposure (step 3) process were continuously repeated to observe the sensorgram in real-time, which is shown in FIG. 11. […] In the 10-set repetition of the binding (step 2) and acidic exposure (step 3), almost all H170/L82 and CLH5/L73 antibodies were able to bind to new antigens in each set. […]

The target is the same in assay [3]. The assay can be described thus: SPR Biacore T100, biotinylated SR344 on streptavidin chip (model of membrane-type IL-6 receptor), antibody as analyte, 37 C. The method, then: (§1) Binding to the membrane-type IL-6 receptor was evaluated by evaluating binding to the IL-6 receptor immobilized on a sensor chip. SR344 was biotinylated in accordance with a method known among persons with ordinary skill in the art, and the biotinylated SR344 was immobilized on the sensor chip via streptavidin using the affinity between streptavidin and biotin. All the measurements were carried out at 37° C. The mobile phase buffer was 10 mM MES (pH 5.8), 150 mM NaCl and 0.05% TWEEN® 20 (polyoxyethelene sorbitan monolaurate).
(§2) The pH-dependently-binding clones were injected under the condition of pH 7.4 to allow them to bind to SR344, and then, the pH-dependent dissociation of each clone at the pH of the mobile phase, pH 5.8, was observed. The results are shown in FIG. 21 (results for Fv1-M71, Fv1-M73, Fv3-M71, and Fv3-M73 are shown in FIG. 21, while results for other clones are shown in FIGS. 17 and 19). Analyses were carried out in the same manner as in Example 10 and the pH dependencies of the dissociation rate constants of all of the eleven types of clones are shown in Table 12.

Assay [4] has the same target. The assay can be described thus: SPR Biacore T100, biotinylated SR344 on streptavidin chip (model of membrane-type IL-6 receptor), antibody as analyte, bound at pH 7.4, dissociation at pH 7.4, 37 C. The method, then: as §1, §2

Changes are numbered by the printed parent chain. Some results are limits rather than exact numbers.

B1: H3pI/L73 (antibody, IgG1, V domains shown)
VH: QVQLQESGPGLVKPSETLSLTCAVSGHSISHDHAHSWVRQPPGEGLEWIGYISYSGITNYNPSLKGRVTISRDTSKNQFSLKLSSVTAADTAAYYCARSLARTTAMDYWGEGTLVTVSS
VL: DIQMTQSPSSLSASVGDSVTITCQASQHISSHLNWYQQKPGKAPELLIYYGSHLHSGVPSRFSGSGSGTDFTFTISSLEAEDAATYYCGQGNRLPYTFGQGTKVEIE
notes: tested as IgG1; also called H3pI/L73-IgG1; H3pl/L73
With B1, in assay [1], the “pH-dependent binding (affinity ratio) relative to WT” value was 15 fold.

B2: H170/L82 (antibody, IgG1, V domains shown)
VH: B1 VH with D32H, N59H, S63H, S99V, T103I, Y108H
VL: B1 VL with H28D
notes: expressed and purified as IgG (IgG1); also called H170/L82-IgG1
Take B2: the “total amount of antigen bound over ten cycles relative to WT” value in assay [2] was about 4 fold. In addition, the “pH-dependent binding (affinity ratio) relative to WT” value in assay [1] is over 15 fold.

B3: Fv4-IgG1 (antibody)
heavy: not shown
light: DIQMTQSPSSLSASVGDSVTITCQASTDISSHLNWYQQKPGKAPELLIYYGSHLLSGVPSRFSGSGSGTDFTFTISSLEAEDAATYYCGQGNRLPYTFGQGTKVEIERTVAAPSVFIFPPSDEQLKSGTASVVCLLNNFYPREAKVQWKVDNALQSGNSQESVTEQDSKDSTYSLSSTLTLSKADYEKHKVYACEVTHQGLSSPVTKSFNRGEC
notes: VH3-IgG1 / VL3-CK
On to B3, for which the “kd (pH 5.8)/kd (pH 7.4)” value in assay [3] turned out to be 5.56. Moreover, the koff in assay [4] turned out to be 0.00047 s⁻¹.

In general, koff refers to the rate constant with which the complex falls apart.
